Reference: patent US11130803B2, “Isoform-selective TGFβ1 inhibitors and use thereof” (Scholar Rock, Inc., priority 2018, dated 2021)
Like-named read-outs stand apart in the source and are kept apart here.

Experiments:
[1] = system: matrix-associated (LTBP1/LTBP3) and cell-associated (GARP/LRRC33) proTGFβ1 complexes; assay: Octet: average KD and fold bias, matrix- vs cell-associated complexes; format: binding, human; details: for Kd: average KD of (E) and (F), cell-associated complexes, read-out: (G) Cell AVRG; for (H) G/D (fold bias): ratio of average KD cell-associated / matrix-associated
Source text: Column (A) of the table lists monoclonal antibodies with discrete amino acid sequences. […] Columns (B), (D), (E) and (F) provide affinities of each of the listed antibodies, measured in KD. […] Average KD values of (B) and (C) are shown in the corresponding column (D), which collectively represents affinities of the antibodies to ECM- or matrix-associated proTGFβ1 complexes. Similarly, Average KD values of (E) and (F) are shown in the corresponding column (G), which collectively represents affinities of the antibodies to cell-surface or cell-associated proTGFβ1 complexes. Finally, relative ratios between the average KD values from columns (D) and (G) are expressed as “fold bias” in column (H). […] This is one way of quantitatively representing and comparing inherent bias of antibodies to their target complexes.
Average KD values between the two matrix-associated and cell-associated complexes are calculated, respectively (see columns (D) and (G)). These average KD values can then be used to ask whether bias in binding activities exists between complexes associated with matrix vs. complexes associated with cell surface (e.g., immune cells). Bias may be expressed as “fold-difference” in the average KD values, as illustrated in Table 8.

[2] = system: matrix-associated (LTBP1/LTBP3) and cell-associated (GARP/LRRC33) proTGFβ1 complexes; assay: as above; format: binding, human; details: average KD of (B) and (C), read-out: (D) ECM AVRG
[3] = system: hLTBP1-/hLTBP3-proTGFβ1 vs hGARP-/hLRRC33-proTGFβ1 complexes; assay: Solution equilibrium titration: relative affinity (bias) LTBP complexes vs cell-associated complexes; format: binding, human; details: for Kd / (H) G/D (fold bias): MSD-SET; for (H) G/D (fold bias): ratio of average KD cell-associated / matrix-associated
Source text: Context-biased: As used herein, “context-biased antibodies” refer to a type of conformational antibodies that binds an antigen with differential affinities when the antigen is associated with (i.e., bound to or attached to) an interacting protein or a fragment thereof. Thus, a context-biased antibody that specifically binds an epitope within proTGFβ1 may bind LTBP1-proTGFβ1, LTBP3-proTGFβ1, GARP-proTGFβ1 and LRRC33-proTGFβ1 with different affinities. […] Relative affinities of [matrix-associated complexes]: [cell-associated complexes] may be obtained by taking average KD values of the former, taking average KD values of the latter, and calculating the ratio of the two, as exemplified herein.
In a yet further aspect, the present disclosure provides context-biased TGFβ1 inhibitors. The context-biased antibodies include LTBP-biased antibodies with higher affinities for ECM-associated LLCs than for cell-associated LLCs wherein the affinities are measured at equilibrium.

[4] = target: T1, recombinant human LTBP1-proTGFβ1 complex (Homo sapiens, UniProt P01137); assay: Octet (Biolayer Interferometry) in vitro kinetic binding; details: in M
T1 construct: made in house; host or cells: Expi293F cells, transient co-transfection
T1 sequence (P01137 30-390): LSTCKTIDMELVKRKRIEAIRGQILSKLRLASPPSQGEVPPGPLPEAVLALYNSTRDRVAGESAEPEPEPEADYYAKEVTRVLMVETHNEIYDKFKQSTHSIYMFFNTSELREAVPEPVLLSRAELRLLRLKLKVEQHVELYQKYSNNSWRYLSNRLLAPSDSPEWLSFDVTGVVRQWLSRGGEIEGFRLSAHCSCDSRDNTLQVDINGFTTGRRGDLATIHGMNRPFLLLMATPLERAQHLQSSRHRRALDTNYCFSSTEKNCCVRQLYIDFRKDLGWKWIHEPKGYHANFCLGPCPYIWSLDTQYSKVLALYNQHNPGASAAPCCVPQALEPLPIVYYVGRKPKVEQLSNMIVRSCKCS
T1 sequence (Q14766 873-1507 partner): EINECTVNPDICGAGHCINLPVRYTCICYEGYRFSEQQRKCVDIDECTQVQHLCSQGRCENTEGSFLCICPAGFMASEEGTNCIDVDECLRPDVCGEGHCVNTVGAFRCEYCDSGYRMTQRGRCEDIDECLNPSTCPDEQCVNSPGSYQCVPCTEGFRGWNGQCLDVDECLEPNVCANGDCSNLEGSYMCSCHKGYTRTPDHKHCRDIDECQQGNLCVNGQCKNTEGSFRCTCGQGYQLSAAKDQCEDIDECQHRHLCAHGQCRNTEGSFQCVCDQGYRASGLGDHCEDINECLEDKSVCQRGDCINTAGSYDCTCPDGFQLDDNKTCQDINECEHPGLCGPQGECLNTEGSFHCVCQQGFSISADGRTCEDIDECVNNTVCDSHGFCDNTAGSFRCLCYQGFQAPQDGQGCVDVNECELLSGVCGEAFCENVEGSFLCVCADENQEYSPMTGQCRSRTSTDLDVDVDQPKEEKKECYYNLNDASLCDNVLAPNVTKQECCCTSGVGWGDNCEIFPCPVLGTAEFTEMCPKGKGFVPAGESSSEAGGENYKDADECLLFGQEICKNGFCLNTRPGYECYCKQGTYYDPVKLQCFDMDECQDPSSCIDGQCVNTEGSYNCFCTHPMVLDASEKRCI
Source text: (§1) Biolayer Interferometry (BLI):BLI is a label-free technology for optically measuring biomolecular interactions, e.g., between a ligand immobilized on the biosensor tip surface and an analyte in solution. BLI provides the ability to monitor binding specificity, rates of association and dissociation, or concentration, with precision and accuracy. BLI platform instruments are commercially available, for example, from ForteBio and are commonly referred to as the Octet® System.
(§2) BLI-based binding assays are widely used in the art for measuring affinities and kinetics of antibodies to antigens. It is a label-free technology in which biomolecular interactions are analyzed on the basis of optical interference. One of the proteins, for example, an antibody being tested, can be immobilized on the biosensor tip. When the other protein in solution, for example, an antigen, becomes bound to the immobilized antibody, it causes a shift in the interference pattern, which can be measured in real-time. This allows the monitoring of binding specificity, rates of association and dissociation, as well as concentration dependency. […] Due to its ease of use and fast results, BLI-based assays such as the Octet® system (available from ForteBio/Molecular Devices, Fremont Calif.), are particularly convenient when used as an initial screening method to identify and separate a pool of “binders” from a pool of “non-binders” or “weak binders” in the screening process.
(§3) Table 8 below provides non-limiting examples of high-affinity, context-independent proTGFβ1 antibodies encompassed by the present invention. The table provides representative results from in vitro binding assays, as measured by Octet®.
(§4) Column (A) of the table lists monoclonal antibodies with discrete amino acid sequences. […] Columns (B), (D), (E) and (F) provide affinities of each of the listed antibodies, measured in KD. […] Average KD values of (B) and (C) are shown in the corresponding column (D), which collectively represents affinities of the antibodies to ECM- or matrix-associated proTGFβ1 complexes. Similarly, Average KD values of (E) and (F) are shown in the corresponding column (G), which collectively represents affinities of the antibodies to cell-surface or cell-associated proTGFβ1 complexes. Finally, relative ratios between the average KD values from columns (D) and (G) are expressed as “fold bias” in column (H). Thus, the greater the number of column (H) is, the greater bias exists for the particular antibody, when comparing binding preferences of the antibody for matrix-associated complexes and cell-surface complexes. This is one way of quantitatively representing and comparing inherent bias of antibodies to their target complexes. Such analyses may be useful in guiding the selection process for a candidate antibody for particular therapeutic use.
(§5) In some embodiments, the binding affinity of an antibody, or antigen binding portion thereof, to an antigen (e.g., protein complex), such as presenting molecule-proTGFβ1 complexes, is determined using an Octet assay. In some embodiments, an Octet assay is an assay that determines one or more a kinetic parameters indicative of binding between an antibody and antigen. In some embodiments, an Octet® system (ForteBio, Menlo Park, Calif.) is used to determine the binding affinity of an antibody, or antigen binding portion thereof, to presenting molecule-proTGFβ1 complexes. For example, binding affinities of antibodies may be determined using the fortéBio Octet QKe dip and read label free assay system utilizing bio-layer interferometry. In some embodiments, antigens are immobilized to biosensors (e.g., streptavidin-coated biosensors) and the antibodies and complexes (e.g., biotinylated presenting molecule-proTGFβ1 complexes) are presented in solution at high concentration ([…]) to measure binding interactions. […]

[5] = target: T2, recombinant human GARP-proTGFβ1 complex (Homo sapiens, UniProt P01137); assay: as above; details: in M
T2 construct: made in house
T2 sequence (P01137 30-390): as the sequence (P01137 30-390) above
T2 sequence (Q14392 20-627 partner limits assumed): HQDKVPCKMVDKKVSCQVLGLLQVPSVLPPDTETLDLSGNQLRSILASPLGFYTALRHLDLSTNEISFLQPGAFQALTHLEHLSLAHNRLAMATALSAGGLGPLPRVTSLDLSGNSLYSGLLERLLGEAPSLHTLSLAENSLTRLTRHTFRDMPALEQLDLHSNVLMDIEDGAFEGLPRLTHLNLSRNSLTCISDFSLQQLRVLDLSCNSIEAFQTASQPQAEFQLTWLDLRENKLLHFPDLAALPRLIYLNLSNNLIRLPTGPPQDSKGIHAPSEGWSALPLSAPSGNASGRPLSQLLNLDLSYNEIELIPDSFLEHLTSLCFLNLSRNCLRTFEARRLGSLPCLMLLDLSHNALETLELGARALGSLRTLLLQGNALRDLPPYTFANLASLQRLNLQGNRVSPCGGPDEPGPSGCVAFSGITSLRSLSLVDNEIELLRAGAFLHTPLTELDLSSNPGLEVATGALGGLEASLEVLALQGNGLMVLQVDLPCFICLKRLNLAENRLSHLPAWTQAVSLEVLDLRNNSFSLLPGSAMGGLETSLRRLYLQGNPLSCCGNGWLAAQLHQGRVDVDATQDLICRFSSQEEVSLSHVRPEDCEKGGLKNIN
Source text: as §1, §2, §3, §4, §5

[6] = target: T3, recombinant human LTBP3-proTGFβ1 complex (Homo sapiens, UniProt P01137); assay: as above; details: in M
T3 construct: made in house; host or cells: Expi293F cells, transient co-transfection
T3 sequence (P01137 30-390): as the sequence (P01137 30-390) above
T3 sequence (Q9NS15 866-1039 partner limits assumed): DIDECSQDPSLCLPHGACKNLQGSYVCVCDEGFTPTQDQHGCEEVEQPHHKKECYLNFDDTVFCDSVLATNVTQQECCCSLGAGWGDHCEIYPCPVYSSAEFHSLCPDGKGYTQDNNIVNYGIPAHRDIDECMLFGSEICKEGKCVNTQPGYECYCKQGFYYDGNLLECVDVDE
Source text: as §1, §2, §3, §4, §5

[7] = target: T4, recombinant human LRRC33-proTGFβ1 complex (Homo sapiens, UniProt P01137); assay: as above; details: in M
T4 construct: made in house
T4 sequence (P01137 30-390): as the sequence (P01137 30-390) above
T4 sequence (Q86YC3 19-650 partner limits assumed): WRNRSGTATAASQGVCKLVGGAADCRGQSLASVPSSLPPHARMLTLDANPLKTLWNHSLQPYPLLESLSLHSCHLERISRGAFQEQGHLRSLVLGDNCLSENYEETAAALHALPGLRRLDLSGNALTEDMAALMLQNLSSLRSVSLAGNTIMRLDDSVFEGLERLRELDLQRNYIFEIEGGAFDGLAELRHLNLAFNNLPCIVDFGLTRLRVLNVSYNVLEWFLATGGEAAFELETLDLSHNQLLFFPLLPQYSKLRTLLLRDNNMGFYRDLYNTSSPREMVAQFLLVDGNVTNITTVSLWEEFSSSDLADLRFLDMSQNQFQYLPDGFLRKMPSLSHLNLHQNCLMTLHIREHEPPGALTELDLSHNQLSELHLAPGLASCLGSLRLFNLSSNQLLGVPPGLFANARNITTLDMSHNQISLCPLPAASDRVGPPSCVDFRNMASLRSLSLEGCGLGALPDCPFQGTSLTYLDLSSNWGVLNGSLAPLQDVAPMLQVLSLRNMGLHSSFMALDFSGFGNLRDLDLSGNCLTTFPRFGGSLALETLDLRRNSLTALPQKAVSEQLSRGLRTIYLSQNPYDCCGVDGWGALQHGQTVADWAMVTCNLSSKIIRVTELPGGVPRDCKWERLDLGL
Source text: as §1, §2, §3, §4, §5

[8] = average KD of (E) and (F), read-out: (G) Cell AVRG
[9] = average KD of (B) and (C), read-out: (D) ECM AVRG

Molecule	(B) hLTBP1, Matrix-associated proTGFb1 (KD) [4]	(E) hGARP, Cell-associated proTGFb1 (KD) [5]	(C) hLTBP3, Matrix-associated proTGFb1 (KD) [6]	(F) hLRRC33, Cell-associated proTGFb1 (KD) [7]	Kd [1] [pM]	(H) G/D (fold bias) [1] [fold]	Kd [2] [pM]	matrix/LTBP-bias in relative affinities between at least one matrix-associated and at least one cell-associated complex [3]	Kd [3, 8] [pM]	(H) G/D (fold bias) [3] [fold]	Kd [3, 9] [pM]	average affinity for human LTBP1-/LTBP3-proTGFβ1 relative to human GARP-/LRRC33-proTGFβ1 complexes (LTBP-biased) ([3]; solution equilibrium titration)
Ab22: monoclonal antibody; VH SEQ ID NO: 130, VL SEQ ID NO: 15 (antibody, V domains shown) VH: EVQLVESGGGLVQPGGSLRLSCAASGFTFGSFSMNWVRQAPGKGLEWVSYIHSDASTIYYADSVKGRFTISRDNAKNSLYLQMNSLRAEDTAVYYCARGVLDYGDMLDPWGQGTLVTVSS VL: DIQMTQSPSSLSASVGDRVTITCQASQDITNYLNWYQQKPGKAPKLLIYDASNLETGVPSRFSGSGSGTDFTFTISSLQPEDIATYYCQQADNHPPWTFGGGTKVEIK	3.18E−10	9.74E−10	3.29E−10	4.15E−10	694	2.147	324	–	114	2.71	42	–
Ab24: monoclonal antibody; VH SEQ ID NO: 132, VL SEQ ID NO: 15 (antibody, V domains shown) VH: EVQLVESGGGLVQPGRSLRLSCAASGFTFSSFAMYWVRQAPGKGLEWVSYISPDASTIYYADSVKGRFTISRDNAKNSLYLQMNSLRAEDTAVYYCARGVLDYGDMLDPWGQGTLVTVSS VL: DIQMTQSPSSLSASVGDRVTITCQASQDITNYLNWYQQKPGKAPKLLIYDASNLETGVPSRFSGSGSGTDFTFTISSLQPEDIATYYCQQADNHPPWTFGGGTKVEIK	2.46E−10	6.65E−10	1.98E−10	4.10E−10	538	2.421	222	–	100	4.35	23	–
Ab26: monoclonal antibody; VH SEQ ID NO: 134, VL SEQ ID NO: 15 (antibody, V domains shown) VH: EVQLVESGGGLVQPGGSLRLSCAASGFTFSSFSMDWVRQAPGKGLEWVSYISPDASTIYYADSVKGRFTISRDNAKNTLYLQMNSLRAEDTAVYYCARGVLDYGDMLDPWGQGTLVTVSS VL: DIQMTQSPSSLSASVGDRVTITCQASQDITNYLNWYQQKPGKAPKLLIYDASNLETGVPSRFSGSGSGTDFTFTISSLQPEDIATYYCQQADNHPPWTFGGGTKVEIK	2.21E−10	6.25E−10	1.73E−10	3.60E−10	492	2.500	197	–	72	2.77	26	–

More lines, main results first:

(B) hLTBP1, Matrix-associated proTGFb1 (KD) [4]	(E) hGARP, Cell-associated proTGFb1 (KD) [5]	(C) hLTBP3, Matrix-associated proTGFb1 (KD) [6]	(F) hLRRC33, Cell-associated proTGFb1 (KD) [7]	Molecule	Kd [1] [pM]	(H) G/D (fold bias) [1] [fold]	Kd [2] [pM]	matrix/LTBP-bias in relative affinities between at least one matrix-associated and at least one cell-associated complex [3]	Kd [3, 8] [pM]	(H) G/D (fold bias) [3] [fold]	Kd [3, 9] [pM]	average affinity for human LTBP1-/LTBP3-proTGFβ1 relative to human GARP-/LRRC33-proTGFβ1 complexes (LTBP-biased) ([3]; solution equilibrium titration)
1.67E−10	8.42E−10	1.54E−10	5.55E−10	Ab11: monoclonal antibody; VH SEQ ID NO: 239, VL SEQ ID NO: 241 (antibody, V domains shown) VH: EVQLLESGGGLVQPGGSLRLSCAASGFTFRNYAMSWVRQAPGKGLEWVSSISGSGGATYYADSVKGRFTISRDNSKNTLYLQMNSLRAEDTAVYYCARVSSGHWDFDYWGQGTLVTVSS VL: DIQLTQSPSSLSASVGDRVTITCRASQSISSYLNWYQQKPGKAPKLLIYAASNLQSGVPSRFSGSGSGTDFTLTISSLQPEDFATYYCQQTYTVPLTFGGGTKVEIK	698	4.352	160	more than five-fold	4650	3.87	–	–
1.92E−10	8.84E−10	1.31E−10	5.45E−10	Ab20: monoclonal antibody; VH SEQ ID NO: 251, VL SEQ ID NO: 241 (antibody, V domains shown) VH: EVQLLESGGGLVQPGGSLRLSCAASGFTFSAYAMTWVRQAPGKGLEWVSAISGSGGVTYYADSVKGRFTISRDNSKNTLYLQMNSLRAEDTAVYYCARVSSGHWDYDYWGQGTLVTVSS VL: DIQLTQSPSSLSASVGDRVTITCRASQSISSYLNWYQQKPGKAPKLLIYAASNLQSGVPSRFSGSGSGTDFTLTISSLQPEDFATYYCQQTYTVPLTFGGGTKVEIK	714	4.424	162	more than five-fold	–	6.75	200	proTGFβ1 and LTBP3-proTGFβ1 complexes is at least five-fold
1.89E−10	3.07E−10	1.21E−10	3.02E−10	Ab29: monoclonal antibody; VH SEQ ID NO: 137, VL SEQ ID NO: 15 (antibody, V domains shown) VH: EVQLVESGGGLVQPGRSLRLSCAASGFTFSSFAMNWVRQAPGKGLEWVSYISPDASTIYYAGSVKGRFTISRDNAKNSLYLQMNSLRAEDTAVYYCVRAVLDYGDMLDPWGQGTLVTVSS VL: DIQMTQSPSSLSASVGDRVTITCQASQDITNYLNWYQQKPGKAPKLLIYDASNLETGVPSRFSGSGSGTDFTFTISSLQPEDIATYYCQQADNHPPWTFGGGTKVEIK	304	1.965	155	–	24	2.00	–	–
